Results as given in paper PMC5437272, “ISCA1 is essential for mitochondrial Fe4S4 biogenesis in vivo” (Nature Communications, 2017).
Where “and” joins values, the source holds several entries; their conditions need not be identical. Equal values may be shown once.

B1: His-ISCA2 (mouse recombinant ISCA2, mature form) (natural protein, UniProt Q9DCB8 38-154, looked up)
chain: TTSSIPEAGEGQIRLTDSCVQRLLEITEGSEFLRLQVEGGGCSGFQYKFSLDTVINPDDRVFEQGGARVVVDSDSLAFVKGAQVDFSQELIRSSFQVLNNPQAQQGCSCGSSFSVKV
notes: ISCA2, mouse, mature form cloned into pET-11a; theoretical mass of the His-tagged monomer 13,554 Da; As purified it holds a Fe2S2 cluster; also called Fe2S2-ISCA2; source: E. coli BL21(DE3)/pET-ISCA2, purified under anaerobic condition (Ni-NTA); not shown: His tag, N-terminal, kept
B2: His-ISCA1 (mouse recombinant ISCA1, mature form) (natural protein, UniProt Q9D924 13-129, looked up)
chain: VSKRKLQPTRAALTLTPSAVNKIKQLLKDKPEHVGLKVGVRTRGCNGLSYSLEYTKTKGDSDEEVIQDGVRVFIEKKAQLTLLGTEMDYVEDKLSSEFVFNNPNIKGTCGCGESFHV
notes: ISCA1, mouse, mature form cloned into pET-11a; theoretical mass of the His-tagged monomer 13,898.8 Da; As purified it holds a Fe2S2 cluster; By gel filtration a mixture of dimer (main) and tetramer (minor); also called Fe2S2-ISCA1; source: E. coli BL21(DE3)/pET-ISCA1, purified aerobically (Ni-NTA); not shown: His tag, N-terminal, kept

Target: the molecule itself
Assay: SEC; analytical Superdex-75, 0.5 ml min^-1, buffer E (100 mM Tris-HCl pH 7.5, 100 mM NaCl, 5 mM DTT), calibrated with molecular weight standards; oligomerization state of the ISCA proteins

Protein	stoichiometry N
B1	2
B2	2 and 4
